In the experiment the target is SMN1, wild type, LUMIER fusion, Q16637. Nature of the experiment: LUMIER. Particulars: chain shown with the change;; parent: est. 51000; read off a plot.
Chain of SMN1, wild type, LUMIER fusion, Q16637 (Q16637 whole entry, the tested form may be a part): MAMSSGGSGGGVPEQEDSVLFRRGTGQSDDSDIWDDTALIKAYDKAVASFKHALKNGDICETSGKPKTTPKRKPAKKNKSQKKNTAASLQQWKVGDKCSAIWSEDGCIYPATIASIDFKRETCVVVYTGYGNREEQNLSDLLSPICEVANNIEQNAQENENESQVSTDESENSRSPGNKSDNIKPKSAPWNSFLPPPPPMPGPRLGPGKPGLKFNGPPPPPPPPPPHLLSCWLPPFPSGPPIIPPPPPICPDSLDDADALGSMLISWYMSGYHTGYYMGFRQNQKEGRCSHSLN

B1: PHF1, wild type, LUMIER fusion, O43189 Y47A (protein)
chain: MAQPPRLSRSGASSLWDPASPAPTSGPRPRLWEGQDVLARWTDGLLALGTIKKVDSAREVCLVQFEDDSQFLVLWKDISPAALPGEELLCCVCRSETVVPGNRLVSCEKCRHAYHQDCHVPRAPAPGEGEGTSWVCRQCVFAIATKRGGALKKGPYARAMLGMKLSLPYGLKGLDWDAGHLSNRQQSYCYCGGPGEWNLKMLQCRSCLQWFHEACTQCLSKPLLYGDRFYEFECCVCRGGPEKVRRLQLRWVDVAHLVLYHLSVCCKKKYFDFDREILPFTSENWDSLLLGELSDTPKGERSSRLLSALNSHKDRFISGREIKKRKCLFGLHARMPPPVEPPTGDGALTSFPSGQGPGGGVSRPLGKRRRPEPEPLRRRQKGKVEELGPPSAVRNQPEPQEQRERAHLQRALQASVSPPSPSPNQSYQGSSGYNFRPTDARCLPSSPIRMFASFHPSASTAGTSGDSGPPDRSPLELHIGFPTDIPKSAPHSMTASSSSVSSPSPGLPRRSAPPSPLCRSLSPGTGGGVRGGVGYLSRGDPVRVLARRVRPDGSVQYLVEWGGGGIF
Consider B1, for which the response came to 28000 RU.

The values above are taken from paper PMC6238616.
